Measurements as given in publication PMC11587861, “A high-throughput search for intracellular factors that affect RNA folding identifies E. coli proteins PepA and YagL as RNA chaperones that promote RNA remodelling”.

Assays:
[1] = target: T1, YagL-H6 (Escherichia coli, UniProt P77607 1-232); assay: filter binding; 75 mM Tris-HCl pH 7.5, 0.4 mM spermidine, 0.1 mM MgCl2, 50 mM NaCl, 0.5 mM EDTA, 0.25 mM DTT, 6% glycerol; 10 min at room temperature; 50 fmol RNA in 60 µL, protein 0-10 µM; conditions: protein: recombinant, label: 5'-32P (printed as [31]P)
T1 sequence: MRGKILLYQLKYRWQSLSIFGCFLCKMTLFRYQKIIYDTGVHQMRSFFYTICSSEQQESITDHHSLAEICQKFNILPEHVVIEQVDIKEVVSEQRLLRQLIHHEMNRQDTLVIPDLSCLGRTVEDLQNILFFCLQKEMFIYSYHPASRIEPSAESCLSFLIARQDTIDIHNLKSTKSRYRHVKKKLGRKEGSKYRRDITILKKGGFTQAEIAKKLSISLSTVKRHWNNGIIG

[2] = target: T2, PepA-H6 (Escherichia coli, UniProt P68767 1-503); assay: as above; conditions: protein: recombinant, tags: C-terminal His6, chain copies: 6, label: 5'-32P (printed as [31]P)
T2 sequence: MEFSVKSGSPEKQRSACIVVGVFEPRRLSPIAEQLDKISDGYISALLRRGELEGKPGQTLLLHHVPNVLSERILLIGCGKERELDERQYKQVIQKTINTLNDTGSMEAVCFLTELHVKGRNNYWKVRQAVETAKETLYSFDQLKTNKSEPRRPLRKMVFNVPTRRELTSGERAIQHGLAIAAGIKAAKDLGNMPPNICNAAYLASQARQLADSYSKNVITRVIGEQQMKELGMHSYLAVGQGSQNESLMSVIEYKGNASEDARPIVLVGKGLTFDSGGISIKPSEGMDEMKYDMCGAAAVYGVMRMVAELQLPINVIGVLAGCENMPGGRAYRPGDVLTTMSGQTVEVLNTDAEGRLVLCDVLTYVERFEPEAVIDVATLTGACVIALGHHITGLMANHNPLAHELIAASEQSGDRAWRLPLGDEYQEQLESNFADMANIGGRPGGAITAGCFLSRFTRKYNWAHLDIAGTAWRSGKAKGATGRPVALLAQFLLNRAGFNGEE

B1: hairpin (structured_RNA)
RNA: GCUCUAGAGCAUUAUGUUCAGAUAAGG
B1 was tested, and the Kd ([1]; hairpin) was 2400 ± 300 nM and the Kd ([2]; hairpin) was 600 ± 400 nM.

B2: 21 R- (ssRNA)
RNA: CUGCUAGAGAUUUUCCACAU
B2 showed a Kd ([1]; single strand) of 5000 ± 1200 nM and a Kd ([2]; single strand) of 600 ± 300 nM.

B3: 21 R+ (ssRNA)
RNA: AUGUGGAAAAUCUCUAGCAGU
B3 gave a Kd ([1]; single strand) of 4500 ± 300 nM and a Kd ([2]; single strand) of 2000 ± 600 nM.
